Biological target: the molecule itself
Assay: AUC

B1: MASP-1 (protein)
chain: HTVELNNMFGQIQSPGYPDSYPSDSEVTWNITVPDGFRIKLYFMHFNLESSYLCEYDYVKVETEDQVLATFCGRETTDTEQTPGQEVVLSPGSFMSITFRSDFSNEERFTGFDAHYMAVDVDECKEREDEELSCDHYCHNYIGGYYCSCRFGYILHTDNRTCRVECSDNLFTQRTGVITSPDFPNPYPKSSECLYTIELEEGFMVNLQFEDIFDIEDHPEVPCPYDYIKIKVGPKVLGPFCGEKAPEPISTQSHSVLILFHSDNSGENRGWRLSYRAAGNECPELQPPVHGKIEPSQAKYFFKDQVLVSCDTGYKVLKDNVEMDTFQIECLKDGTWSNKIPTCKIVDCRAPGELEHGLITFSTRNNLTTYKSEIKYSCQEPYYKMLNNNTGIYTCSAQGVWMNKVLGRSLPTCLPVCGLPKFSRKLMARIFNGRPAQKGTTPWIAMLSHLNGQPFCGGSLLGSSWIVTAAHCLHQSLDPEDPTLRDSDLLSPSDFKIILGKHWRLRSDENEQHLGVKHTTLHPQYDPNTFENDVALVELLESPVLNAFVMPICLPEGPQQEGAMVIVSGWGKQFLQRFPETLMEIEIPIVDHSTCQKAYAPLKKKVTRDMICAGEKEGGKDACAGDSGGPMVTLNRERGQWYLVGTVSWGDDCGKKDRYGVYSYIHHNKDWIQRVTGVRN
In the case of B1, the Kd is reported as < 10 nM.

B2: MASP-2 (protein)
chain: TPLGPKWPEPVFGRLASPGFPGEYANDQERRWTLTAPPGYRLRLYFTHFDLELSHLCEYDFVKLSSGAKVLATLCGQESTDTERAPGKDTFYSLGSSLDITFRSDYSNEKPFTGFEAFYAAEDIDECQVAPGEAPTCDHHCHNHLGGFYCSCRAGYVLHRNKRTCSALCSGQVFTQRSGELSSPEYPRPYPKLSSCTYSISLEEGFSVILDFVESFDVETHPETLCPYDFLKIQTDREEHGPFCGKTLPHRIETKSNTVTITFVTDESGDHTGWKIHYTSTAQPCPYPMAPPNGHVSPVQAKYILKDSFSIFCETGYELLQGHLPLKSFTAVCQKDGSWDRPMPACSIVDCGPPDDLPSGRVEYITGPGVTTYKAVIQYSCEETFYTMKVNDGKYVCEADGFWTSSKGEKSLPVCEPVCGLSARTTGGRIYGGQKAKPGDFPWQVLILGGTTAAGALLYDNWVLTAAHAVYEQKHDASALDIRMGTLKRLSPHYTQAWSEAVFIHEGYTHDAGFDNDIALIKLNNKVVINSNITPICLPRKEAESFMRTDDIGTASGWGLTQRGFLARNLMYVDIPIVDHQKCTAAYEKPPYPRGSVTANMLCAGLESGGKDSCRGDSGGALVFLDSETERWFVGGIVSWGSMNCGEAGQYGVYTKVINYIPWIENIISDF
For B2, the Kd was < 10 nM.
